Target: receptors for heregulin on rat Schwann cell lines (ESC and ASC)

half-maximal response, growth of rat ESC and ASC Schwann cell lines: 1 to 2 nM
Substance: recombinant human heregulin-β1 177-244 fragment (from UniProt Q02297) (ligand)

— patent US5849585
